# What was measured:
# [1] = system: T1, stearate-Fus1 peptide (Stearic acid-KLRRVHKNLIPQGIVKLDHR)
# T1 sequence: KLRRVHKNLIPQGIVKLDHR
# [2] = system: T2, non-stearate Fus1 peptide
# T2 sequence: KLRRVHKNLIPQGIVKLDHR
substance,measurement,setting,value
truncated commercial (New England Bio-Labs) cAbl tyrosine kinase (45 kD) containing only the SH2 and SH1 domains,Abl tyrosine kinase assay using bacterially purified Abl kinase (GST-CRK phosphorylation),[1],This peptide was strongly inhibitory in an Abl tyrosine kinase assay using bacterially purified Abl kinase
same,"c-Abl tyrosine phosphorylation of GST-CRK (32P, SDS-PAGE, phosphoimager; 10-55 µM peptide)",[1],the peptide inhibits c-Abl tyrosine phosphorylation of GST-CRK
same,"GST-Crk phosphorylation by the 45 kD Abl tyrosine kinase, 0-60 uM peptide",[2],Non-stearic acid modified Fus1 peptide did not inhibit Abl tyrosine kinase activity
same,phosphorylation of Gst-Crk by commercial Abl,[2],Non-stearate FUS1 peptide did not inhibit phosphorylation of Gst-Crk by commercial Abl

# From patent publication US20060251726
